Results taken from the supplement of paper PMC10567573.

B1: PPP2R2B (parent)
chain: RNTKRDVTLEASRENSKPRAILKP
B2: GNB5 (parent)
chain: DINSVRYYPSGDAFASGSDDATCR

Variants of: B1
Test: protein stability index of a GFP-peptide fusion (GPS, HEK-293T) (PSI 1-6); higher = more stable
Details: c terminus: a fixed tail appended
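Also: lentivirally expressed fusions sorted by FACS into six bins by GFP to DsRed ratio, PSI derived from sequencing read proportions per bin multiplied by bin number.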

Variant | protein stability index
RNTKRDVTLEASRENSKPRAILKI | 3.32
RNTKRDVTLEASRENSKPRAILKC | 4.44
RNTKRDVTLEASRENSKPRAILKF | 3.56
RNTKRDVTLEASRENSKPRAILKS | 4.49
RNTKRDVTLEASRENSKPRAILKH | 4.41
RNTKRDVTLEASRENSKPRAILKQ | 4.47
RNTKRDVTLEASRENSKPRAILKG | 4.65
RNTKRDVTLEASRENSKMRAILKP | 4.58
RNTKRDVTLEASRENSKKRAILKP | 4.73
RNTKRDVTLEASRENSKVRAILKP | 4.32
RNTKRDVTLEASRENSKERAILKP | 5
RNTKRDVTLEASRENSKTRAILKP | 4.54
RNTKRDVTLEASRENSKQRAILKP | 4.76
RNTKRDVTLEASRENSKYRAILKP | 3.62
RNTKRDVTLEASRENSKIRAILKP | 4.27
RNTKRDVTLEASRENSKWRAILKP | 3.87
RNTKRDVTLEASRENSKFRAILKP | 3.79
RNTKRDVTLEASRENSKCRAILKP | 4.25
RNTKRDVTLEASRENSKLRAILKP | 4.27
RNTKRDVTLEASRENSKHRAILKP | 4.11
RNTKRDVTLEASRENSKSRAILKP | 4.72

Variant | protein stability index
RNTKRDVTLEASRENSKGRAILKP | 4.86
RNTKRDVTLEASRENSKRRAILKP | 4.79
RNTKRDVTLEASRENSKARAILKP | 4.52
RNTKRDVTLEASRENSKNRAILKP | 4.55
RNTKRDVTLEASRENSKDRAILKP | 5.07
RNTKRDVTLEASRENSEPRAILKP | 5.13
RNTKRDVTLEASRENSWPRAILKP | 4.3
RNTKRDVTLEASRENSTPRAILKP | 4.71
RNTKRDVTLEASRENSFPRAILKP | 4.37
RNTKRDVTLEASRENSRPRAILKP | 4.38
RNTKRDVTLEASRENSYPRAILKP | 4.14
RNTKRDVTLEASRENSQPRAILKP | 4.81
RNTKRDVTLEASRENSHPRAILKP | 4.47
RNTKRDVTLEASRENSCPRAILKP | 4.18
RNTKRDVTLEASRENSPPRAILKP | 5.27
RNTKRDVTLEASRENSNPRAILKP | 4.5
RNTKRDVTLEASRENSSPRAILKP | 4.04
RNTKRDVTLEASRENSGPRAILKP | 4.89
RNTKRDVTLEASRENSVPRAILKP | 4.66
RNTKRDVTLEASRENSIPRAILKP | 4.33
RNTKRDVTLEASRENSDPRAILKP | 4.57

Variant | protein stability index
RNTKRDVTLEASRENSLPRAILKP | 4.56
RNTKRDVTLEASRENSAPRAILKP | 4.66
RNTKRDVTLEASRENSMPRAILKP | 4.69
RNTKRDVTLEASRENKKPRAILKP | 4.23
RNTKRDVTLEASRENCKPRAILKP | 4.23
RNTKRDVTLEASRENNKPRAILKP | 4.48
RNTKRDVTLEASRENRKPRAILKP | 4.24
RNTKRDVTLEASRENTKPRAILKP | 4.2
RNTKRDVTLEASRENAKPRAILKP | 4.51
RNTKRDVTLEASRENFKPRAILKP | 4.38
RNTKRDVTLEASRENGKPRAILKP | 4.42
RNTKRDVTLEASRENWKPRAILKP | 3.37
RNTKRDVTLEASRENMKPRAILKP | 4.53
RNTKRDVTLEASRENQKPRAILKP | 4.61
RNTKRDVTLEASRENLKPRAILKP | 4.16
RNTKRDVTLEASRENIKPRAILKP | 4.19
RNTKRDVTLEASRENHKPRAILKP | 4.57
RNTKRDVTLEASRENYKPRAILKP | 4.17
RNTKRDVTLEASRENVKPRAILKP | 4.24
RNTKRDVTLEASRENPKPRAILKP | 4.96
RNTKRDVTLEASRENDKPRAILKP | 4.58

Variant | protein stability index
RNTKRDVTLEASRENEKPRAILKP | 4.75
RNTKRDVTLEASRENSKPRAIQKP | 4.92
RNTKRDVTLEASRENSKPRAIFKP | 4.5
RNTKRDVTLEASRENSKPRAIRKP | 4.75
RNTKRDVTLEASRENSKPRAIMKP | 4.33
RNTKRDVTLEASRENSKPRAIYKP | 4.37
RNTKRDVTLEASRENSKPRAISKP | 4.9
RNTKRDVTLEASRENSKPRAIIKP | 4.2
RNTKRDVTLEASRENSKPRAIKKP | 5.11
RNTKRDVTLEASRENSKPRAITKP | 4.49
RNTKRDVTLEASRENSKPRAIHKP | 4.8
RNTKRDVTLEASRENSKPRAIVKP | 4.72
RNTKRDVTLEASRENSKPRAIGKP | 4.69
RNTKRDVTLEASRENSKPRAIAKP | 4.99
RNTKRDVTLEASRENSKPRAIDKP | 5.09
RNTKRDVTLEASRENSKPRAIWKP | 3.98
RNTKRDVTLEASRENSKPRAIEKP | 5.31
RNTKRDVTLEASRENSKPRAINKP | 4.79
RNTKRDVTLEASRENSKPRAIPKP | 4.28
RNTKRDVTLEASRENSKPRAICKP | 4.47

Variants of: B2
Test: as above
Details: c terminus: a fixed tail appended

Variant | protein stability index
HINSVRYYPSGDAFASGSDDATCR | 3.48
AINSVRYYPSGDAFASGSDDATCR | 4.18
CINSVRYYPSGDAFASGSDDATCR | 3.44
LINSVRYYPSGDAFASGSDDATCR | 3.73
IINSVRYYPSGDAFASGSDDATCR | 3.48
FINSVRYYPSGDAFASGSDDATCR | 2.54
NINSVRYYPSGDAFASGSDDATCR | 4.37
KINSVRYYPSGDAFASGSDDATCR | 3.85
MINSVRYYPSGDAFASGSDDATCR | 3.81
GINSVRYYPSGDAFASGSDDATCR | 4.36
EINSVRYYPSGDAFASGSDDATCR | 4.1
